The values below come from patent publication US10969392B2, “Methods and systems for predicting response to immunotherapies for treatment of cancer” (Vanderbilt University, priority 2015, dated 2021).

Entries after “also recorded” stand apart in the source; their conditions may differ.

Common to all, as to format: cell-based, human
The test system of assay [1] is melanoma cell lines. The assay is described as follows: IFNγ stimulation of melanoma cell lines, flow cytometry for HLA-DR and PD-L1. The following applies: for HLA-DR surface expression: 100 ng/mL; for HLA-DR expression by flow cytometry: Example 5. As to the method:
(§1) FIGS. 3A-F show characterization of MHC-II(+) melanoma cell lines. Melanoma cell lines were treated with IFNy for 24 h before collection and live-cell staining and flow cytometry analysis for (A) MHC-I (HLA-A/B/C), (B) MHC-II (HLA-DR), and (C) PD-L1. Bars represent mean ±S.E.M. for at least three experiments (D) Representative flow plots from (C). (E) Western blot analysis of melanoma cell lines after 24 or 48 h of IFNy stimulation. (F) Phosphorylation of STAT1 (top row) and STAT5 (bottom row) in melanoma cell lines at 15 min after IFNy stimulation. Histograms were coloured according to the arcsinh transformed ratio or MFI medians relative to the table minimum value.
FIGS. 4A-D show graphs illustrating mean expression levels of MHC-I, MHC-II, and PD-L1 at baseline and after IFNy stimulation. Melanoma cell lines were treated with 100 ng IFNy for 24 hr (shown as percentage positive in FIGS. 2A-C) prior to harvest and live-cell staining and flow cytometry analysis for (A) MHC-I/HLA-A/B/C, (B) MHC-II/HLA-DR, and (C) PD-L1. Bars represent mean fluorescence intensity ±SEM for 3 experiments. (D) Histograms of HLA-DR surface expression over an extended (24-72 hr) IFNy treatment, as assessed by flow cytometry.
Cell surface expression mirrored mRNA expression patterns; MHC-I (HLA-A/B/C) was expressed ubiquitously among all cell lines under both basal and stimulated conditions, while MHC-II (HLA-DR) was present only on the intermediate/Ib (SKMEL5 and SKMEL28) and high/Ia cell lines (WM115 and A375; FIGS. 3A-C and 4A-D). […] The high (Ia) WM115 cell line was essentially 100% positive for HLA-DR at both basal and stimulated conditions.
Standard Flow Cytometry. Flow cytometry was performed using the following antibodies: HLA-DR/PE-Cy7 (Biolegend, clone L243. 1:20). CD274/PD-L1/APC (Biolegend, clone 29E.2A3, 1:200) and HLA-A/B/C-Alexa Fluor488 (1:100, Biolegend, clone W6/32) mouse MHC-II (I-A/I-E 1:20 Biolegend, clone M5/114.15.2). DAPI was used as a viability dye. Samples were analyzed on an Aria III laser system (BD Biosciences)
Cell and tumor culture. SKMEL-28 and WM115 cell lines were obtained from Dr. Kimberly Dahlman (Vanderbilt University), CHL-1 and HMCB melanoma cell lines were obtained from the laboratory of William Pao (Vanderbilt University). Cell line nature was not directly authenticated, but protein marker expression was consistent with published HLA-DRA mRNA expression patterns (CCLE). Cell lines were confirmed mycoplasma-free and cultured in DMEM containing 10% FBS. Stimulation with recombinant human IFNγ (R&D Systems) was performed at 100 ng/mL. For PDX models and ex-vivo organotypic culture, tumors were freshly resected and sectioned using an Alto tissue matrix sectioner (Roboz Surgical, Gaithersburg, Md.).
Methods. MHC-I/II mRNA was profiled across 60 MEL cell lines. The transcriptional characteristics of MHC-II+ cell lines were analyzed by Gene Set Analysis. Cell surface expression of MHC-I and MHC-II was confirmed by flow cytometry (FC) in a subset of cell lines under basal and stimulated (IFNγ) conditions. In 26 tumor samples from αPD-1 treated MEL patients, immunohistochemistry (IHC) was performed for HLA-DR (MHC-II) or HLA-A (MHC-I), SOX10, CD4 and CD8. IHC results were correlated with response and progression-free survival (PFS).
(Flow cytometry measures light scatter and fluorescence of single cells or particles in a stream.)

In assay [2] the test system is melanoma cell lines. Nature of the assay: IFNγ stimulation of melanoma cell lines, Western blot and phospho-flow (STAT1, STAT5, CIITA). As to the method: as §1
Immunoblotting Immunoblotting was performed as previously described^32 Briefly, cells were washed in cold phosphate-buffered saline, collected and lysed in 1×RIPA buffer (50 mM Tris (pH 7.4), 1% NP-40, 150 mM NaCl, 1 mM EDTA, 0.1% SDS, 0.25% sodium deoxycholate, 5 mM NaF, 5 mM Na3VO4, 10% glycerol, […] phenylmethyl-sulphonylfluoride and protease inhibitors) for 30 min on ice. Lysates were sonicated for 2-3 s to shear DNA and cleared by centrifugation at 13,200 r.p.m. for 15 min. Protein concentrations of the lysates were determined by BCA assay (Bio-Rad, Hercules, Calif.). Samples were separated by SDS-PAGE and transferred to nitrocellulose membrane. Membranes were blocked with 5% non-fat dry milk or 5% bovine serum albumin in tris-buffered saline with 0.1% Tween-20 for 1 h at room temperature and then incubated overnight at 4° C. with the appropriate antibody as indicated. Following incubation with appropriate horseradish peroxidase-conjugated secondary antibodies, proteins were visualized using an enhanced chemiluminescence detection system. […]
Phospho-flow cytometry. […] Samples were analyzed on a LSRII system (BD Biosciences). […]

Assay [3] concerns PDX tumors from melanoma patients PT1 and PT2. The assay is described as follows: Ex vivo organotypic culture of PDX tumour slices with or without IFNγ, Western blot for HLA-DR. Particulars: PT1 (anti-PD-1 non-responder) and PT2 (responder) PDX, 24-48 h. The source says:
FIGS. 6A-D show Ex vivo culture of tumours derived from anti-PD-1-responding and non-responding patients identifies heterogeneity in interferon response. (A) Patient tumour blocks stained for HLA-DR (brown) and SOX10 (pink) at low (scale bar, 500 um) and high magnification (scale bar, […]); PT1: anti-PD-1 non-responder and PT2: anti-PD-1 responder. (B) Experimental schema. (C) Schema and images of PDX tissue sections (ex vivo organotypic culture). (D) Western blot analysis of tissue sections cultured in the presence or absence of IFNy for 24-48 h.
To test this hypothesis, patient-derived xenograft (PDX) models were utilized from the tumor resections of two melanoma patients who subsequently received anti-PD1 therapy; patient 1 (PT1; non-responder, 0% HLA-DR-positive, class II/III) and patient 2 (PT2; partial responder, heterogeneous 15% HLA-DR-positive, class Ib) (FIG. 6A). […] The resected tumors from PT1 and PT2 were serially transplanted to athymic nu/nu mice, which are highly deficient in functional T cells, ruling out a possible source of IFNγ (FIG. 6B). […] Thus, HLA-DR may be a marker of IFNγ activity in the microenvironment of some (but not all) tumors.
Cell and tumor culture. SKMEL-28 and WM115 cell lines were obtained from Dr. Kimberly Dahlman (Vanderbilt University), CHL-1 and HMCB melanoma cell lines were obtained from the laboratory of William Pao (Vanderbilt University). […]
Background: A western blot detects proteins with antibodies after separation by electrophoresis.

B1: IFNγ: recombinant human IFNγ (R&D Systems) used at 100 ng/mL to stimulate melanoma cell lines and tumour slices (protein, UniProt P01579 24-161, looked up)
Interferon gamma: QDPYVKEAENLKKYFNAGHSDVADNGTLFLGILKNWKEESDRKIMQSQIVSFYFKLFKNFKDDQSIQKSVETIKEDMNVKFFNSNKKKRDDFEKLTNYSVTDLNVQRKAIHELIQVMAELSPAAKTGKRKRSQMLFRG
Regarding B1, the HLA-DR surface expression result in the assay on melanoma cell lines [1] (CHL-1 or HMCB cells, up to 72 hrs) is “No significant increase”; in the assay on melanoma cell lines [1] (SKMEL28 (intermediate/Ib), 25% positive at baseline, 24 h), “potently induced”. The “HLA-DR expression by flow cytometry” value in the assay with melanoma cell lines [1] (MHC-II+ (mRNA) cell lines) was “constitutive and inducible”; with melanoma cell lines [1] (MHC-II− cells), “did not express or induce”. In the assay with melanoma cell lines [1] (all cell lines tested, 24 h stimulation), the PD-L1 expression entry is reported as “significantly upregulated; also recorded: potently induced”. In addition, in the assay with melanoma cell lines [2] (Western blot, 24 or 48 h stimulation), the CIITA expression entry is “only induced in HLA-DR+Ia/Ib cells”. In the assay with melanoma cell lines [2] (all cell lines, Western blot 24 or 48 h, phospho-flow 15 min), the STAT1 activation result is “robustly activated”. In addition, the STAT5 activation result in the assay with melanoma cell lines [2] (phospho-flow, 15 min stimulation, 100 ng/mL) is listed as “preferentially activated by IFNγ in MHC-II(−) cell lines”. The “HLA-DR upregulation in cultured tissue slices” value in assay [3] is reported as “only the PT2 PDX model (anti-PD-1 responder) upregulated HLA-DR”.
